Read-outs that look alike come from different tables or passages of the source.
How the values were obtained:
Experiment in all cases: EMSA
[1] = target: T1, CSB-HD (helicase-like domain) (human, UniProt Q03468 498-1002)
[2] = target: T1, CSB-HD (helicase-like domain); remark: listed apart in the source
[3] = target: T1, CSB-HD (helicase-like domain); remark: listed apart in the source
[4] = target: T1, CSB-HD (helicase-like domain); remark: listed apart in the source
[5] = target: T1, CSB-HD (helicase-like domain); remark: listed apart in the source

T1 sequence (Q03468 498-1002): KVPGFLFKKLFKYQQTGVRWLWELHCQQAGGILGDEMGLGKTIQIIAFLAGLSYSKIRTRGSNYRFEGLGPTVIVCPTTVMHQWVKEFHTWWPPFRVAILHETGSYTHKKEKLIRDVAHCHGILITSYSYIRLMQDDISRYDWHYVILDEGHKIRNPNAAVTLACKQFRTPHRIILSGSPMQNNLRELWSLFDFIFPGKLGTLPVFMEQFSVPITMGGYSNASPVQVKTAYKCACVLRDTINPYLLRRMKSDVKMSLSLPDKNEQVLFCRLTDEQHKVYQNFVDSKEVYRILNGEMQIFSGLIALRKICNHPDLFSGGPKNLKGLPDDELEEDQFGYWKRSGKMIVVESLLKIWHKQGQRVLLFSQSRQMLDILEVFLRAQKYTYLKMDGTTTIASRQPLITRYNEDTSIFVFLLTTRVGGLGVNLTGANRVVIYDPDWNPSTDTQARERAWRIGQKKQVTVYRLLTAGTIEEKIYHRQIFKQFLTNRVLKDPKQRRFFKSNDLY

With 3'-tailed rDNA the Kd [1] was 0.176 nM.

For “5'-tailed rDNA, annealed in KCl (intermolecular G4)”, the Kd [1] was 0.557 nM.

AAATGGGTGGGTAGGGTGGGTATAATTATAAATAAATAATA (structured_DNA) [3'-tailed c-MYC]: no binding [2].

Work on ATAATTATAAATAAATAATAGGGTCGGGGGGTGGGGCCCGGGCCGGGG (structured_DNA) [5'-tailed rDNA-2] yielded a Kd [3] of 0.36 nM.

TGAGGGTGGGTAGGGTGGGTAA (structured_DNA) [untailed c-MYC]: no binding [4].

With ATAATTATAAATAAATAATGGGGTTTTGGGG (structured_DNA) [5'-tailed O. nova d(G4T4G4)] the Kd [5] was 0.00988 nM.

ATAATTATAAATAAATAATAGGGAGGGAGACGGGGGGG (structured_DNA) [5'-tailed rDNA-3] showed a Kd [3] of 0.977 nM.

AGGGTCGGGGGGTGGGGCCCGGGCCGGGG (structured_DNA) [untailed rDNA-2]: no binding [4].

— paper doi:10.1101/2021.03.25.436565
